Data as given in publication PMC4338318.

Columns and labels:
[1] = target: Seipin-Myc (wild type) (human) (UniProt Q96G97); experiment: atomic force microscopy (AFM); complexes isolated by sequential anti-FLAG and anti-Myc immunoaffinity from triply transfected tsA 201 cells; tapping mode in air
[2] = target: FLAG-seipin-Myc (human) (UniProt Q96G97); experiment: atomic force microscopy (AFM); complexes isolated by anti-Myc immunoaffinity from co-transfected tsA 201 cells and eluted; tapping mode in air; particle volumes and decorations

Substance | stoichiometry N [1] | percent of seipin particles doubly decorated [2] | percent of seipin particles triply decorated [2] | percent of seipin particles doubly decorated by AGPAT2 plus lipin 1 [1] | stoichiometry N [2]
Seipin-Myc (wild type) (from UniProt Q96G97 1-398) (natural protein) | 12 |  |  |  | 
FLAG-AGPAT2 (from UniProt O15120 24-278) (enzyme) |  | 12.8% | 1% | 10.1% | 
HA-lipin 1α (from UniProt Q14693 1-890) (enzyme) |  | 9% |  | 10.1% | 
FLAG-seipin-Myc (from UniProt Q96G97 1-398) (natural protein) |  |  |  |  | 12
